This is an account of results in doi:10.1101/2024.12.16.628271.

Bounds are passed on as bounds.

The target of test [1] is Corynebacterium glutamicum PafA (proteasome accessory factor A; Pup ligase) (Corynebacterium glutamicum) (UniProt Q8NQE1). Kind of test: SEC. (In general: SEC sorts molecules by how far they enter the pores of the column.)
For test [2] the target is unchanged. Briefly: SEC-MALS.
The target is the same in test [3]. Kind of test: HDX-MS.

What is called Kd is the constant that tells how readily two partners part at equilibrium. Read a low Kd as tighter binding. By koff is commonly meant a measure of how fast the partners let go of each other. The stoichiometry N is a count of units in the complex or per binding partner. In test [1], “Corynebacterium glutamicum PafA (proteasome accessory factor A; Pup ligase) (from UniProt Q8NQE1 1-482) (enzyme)” had a Kd greater than 1100 µM and an off-rate constant (koff) of 4.72e-05 s⁻¹. Further, the stoichiometry N in test [2] is 2. In test [3], this substance displayed an average k open of PafA dimer dissociation (HDX-MS, EX1) of 0.06 h⁻¹.
